According to article PMC3991421:

Target: hydroxycoumarin-labeled M2 C terminus (…) (influenza A virus)
Assay: […]; fluorescence anisotropy, equilibrium; […], in triplicate

For “purified LC3 (from UniProt Q9GZQ8 1-120) (natural protein)”, the Kd was 9.5 µM.
